Assay results taken from patent US12685781B2, “Anti-HER3 antibody-drug conjugate” (DAIICHI SANKYO COMPANY, LIMITED, priority 2014, dated 2026).

Assays:
[1] = biological target: T1, HER3 (Homo sapiens, UniProt P21860); assay: HER3 binding affinity by flow cytometry on HCC1569 cells; parameters: host or cells: HCC1569 (human breast cancer cell line); details: read-out: Kd (nM), equilibrium binding affinity
Method: A human breast cancer cell line HCC1569 (CRL-2330) from ATCC was cultured in an RPMI1640 medium (purchased from Invitrogen Corp., containing 10% […] (manufactured by Invitrogen Corp.) and 2 mM L-glutamine (manufactured by Invitrogen Corp.)). The cells were dissociated from the culture plate using ACCUTASE® SOLUTION (Millipore Corp., SCR005) or EDTA (5 mM, phosphate buffered saline (PBS, 137 mM sodium chloride, 2.7 mM potassium chloride, 1.47 mM potassium dihydrogen phosphate, and 10.5 mM disodium hydrogen phosphate)), and the number of living cells was measured by trypan blue treatment. The same numbers of cells suspended in a fluorescence-activated cell sorting (FACS) buffer (PBS containing 3% FBS and 0.004% sodium azide) were inoculated to 96-well U-bottom plates, and the cells were precipitated by centrifugation and suspended in 100 uL of an ice-cooled antibody or antibody-drug conjugate dilution or FACS buffer. […]
U1-59, the antibody-drug conjugate (3), the antibody-drug conjugate (10), or the antibody-drug conjugate (13) was evaluated as the antibody or the antibody-drug conjugates. […]
Fluorescence signals from living cells were evaluated using Accuri C6 Flow cytometer (BD Biosciences/Accuri® Cytometers Inc., serial number 1424) and CFlow software (CFlow sampler Version 1.0.264.13). […]

[2] = biological target: T1, HER3; assay: Inhibition of HER3 signal, Western blotting in A549 cells; format: cell-based
Method: A human lung cancer cell line A549 (CRS-300114) from Cell Lines Service was dissociated by trypsin treatment, and 50,000 living cells were inoculated to 3 mL of DMEM/F12 (Invitrogen Corp., #21331-020)+10% FBS (Invitrogen Corp., #10270-106) in each of 6 wells. After culturing the cells for 3 days, the medium was replaced with 2 mL of a fresh medium.
The antibody or each antibody-drug conjugate was added directly to 2 mL of a medium in each of the 6 wells such that the final concentration was 10 ug/mL (20 uL of a stock solution of 1 ug/uL antibody or antibody-drug conjugate was added).
U1-59, the antibody-drug conjugate (3), the antibody-drug conjugate (10), or the antibody-drug conjugate (13) was used as the antibody or the antibody-drug conjugate. An untreated group was used as a control.
The cells were cultured for 2 days, washed once with PBS, and treated with 100 uL of an ice-cooled buffer (50 mM 4-(2-hydroxyethyl)-1-piperazineethanesulfonic acid (HEPES), pH 7.5, 150 mM sodium chloride, 1 mM ethylenediaminetetraacetic acid (EDTA), 12.5% glycerin, 1% Triton X-100, and 10 mM sodium pyrophosphate tetrabasic supplemented with proteinase inhibitors (Roche Diagnostics, Inc., #11697 498 001), 10 mM sodium fluoride, 1 mM sodium vanadate, 1 mM phenyl-methane-sulfonyl-fluoride (PMSF), and 10 ug/mL aprotinin (Sigma-Aldrich Co. LLC, A1153)) for 30 minutes at 4 C for lysis. […]

U1-59: anti-HER3 human antibody; heavy and light chain variable regions SEQ ID NOs: 70 and 72; produced per WO 2007/077028
Kd [1]: 1.6 nM | HER3 phosphorylation compared with untreated cells ([2]; A549, 10 ug/mL, 2 days): reduced | HER3 expression compared with untreated cells ([2]; A549, 2 days): reduction in HER3 expression was also observed
